“And” between values parts separate entries of the source, which are not always exact repeats. Equal entries are not always repeated.
What was measured:
LysrHU-A = LysrHU-A (Escherichia coli K-12, UniProt P0ACF0 1-90, K83A;K86A); assay: EMSA; EMSA on 0.7% or 1% agarose gels, EtBr stain; binding buffer, salt, pH and temperature not stated; conditions: protein: recombinant; chain copies: 2; label: none (EtBr stain); four-way junction of 4 strands, equimolar, one copy each; strands as printed are not perfectly complementary
LoodHU-B = target: T1, LoodHU-B (Escherichia coli K-12, UniProt P0ACF4 1-51+=SGGGGSGGGGS+75-90, internal_change); assay: as above; conditions: protein: recombinant; chain copies: 2; label: none (EtBr stain); four-way junction of 4 strands, equimolar, one copy each; strands as printed are not perfectly complementary
T1 sequence: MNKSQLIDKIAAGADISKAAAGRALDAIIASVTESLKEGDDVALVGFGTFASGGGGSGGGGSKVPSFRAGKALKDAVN

LoodHU-B K86A = target: T2, LoodHU-B K86A (Escherichia coli K-12, UniProt P0ACF4 1-51+=SGGGGSGGGGS+75-90, K86A;internal_change); assay: as above; conditions: protein: recombinant; chain copies: 2; label: none (EtBr stain); four-way junction of 4 strands, equimolar, one copy each; strands as printed are not perfectly complementary
T2 sequence: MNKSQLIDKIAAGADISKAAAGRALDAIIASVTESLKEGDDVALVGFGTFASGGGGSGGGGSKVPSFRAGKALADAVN

F47W HU-B = target: T3, F47W HU-B (Escherichia coli K-12, UniProt P0ACF4 1-90, F47W); assay: as above; conditions: protein: recombinant; chain copies: 2; label: none (EtBr stain); four-way junction of 4 strands, equimolar, one copy each; strands as printed are not perfectly complementary
T3 sequence: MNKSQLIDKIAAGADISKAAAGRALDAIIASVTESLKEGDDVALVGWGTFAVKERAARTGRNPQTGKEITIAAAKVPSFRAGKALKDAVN

F79W HU-B = target: T4, F79W HU-B (Escherichia coli K-12, UniProt P0ACF4 1-90, F79W); assay: as above; conditions: protein: recombinant; chain copies: 2; label: none (EtBr stain); four-way junction of 4 strands, equimolar, one copy each; strands as printed are not perfectly complementary
T4 sequence: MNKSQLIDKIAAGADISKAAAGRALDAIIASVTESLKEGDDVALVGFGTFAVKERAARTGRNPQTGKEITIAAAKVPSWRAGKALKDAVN

HU-B K83A = target: T5, HU-B K83A (Escherichia coli K-12, UniProt P0ACF4 1-90, K83A); assay: as above; conditions: protein: recombinant; chain copies: 2; label: none (EtBr stain); four-way junction of 4 strands, equimolar, one copy each; strands as printed are not perfectly complementary
T5 sequence: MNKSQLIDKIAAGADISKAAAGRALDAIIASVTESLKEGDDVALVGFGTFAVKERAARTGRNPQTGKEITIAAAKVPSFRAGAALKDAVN

HU-B = target: T6, HU-B (Escherichia coli K-12, UniProt P0ACF4 1-90); assay: as above; conditions: protein: recombinant; chain copies: 2; label: none (EtBr stain); four-way junction of 4 strands, equimolar, one copy each; strands as printed are not perfectly complementary
T6 sequence: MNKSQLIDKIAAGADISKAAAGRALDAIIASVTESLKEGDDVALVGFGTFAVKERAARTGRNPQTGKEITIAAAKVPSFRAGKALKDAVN

LoodLysrHU-B = target: T7, LoodLysrHU-B (Escherichia coli K-12, UniProt P0ACF4 1-51+=SGGGGSGGGGS+75-90, K83A;K86A;internal_change); assay: as above; conditions: protein: recombinant; chain copies: 2; label: none (EtBr stain); four-way junction of 4 strands, equimolar, one copy each; strands as printed are not perfectly complementary
T7 sequence: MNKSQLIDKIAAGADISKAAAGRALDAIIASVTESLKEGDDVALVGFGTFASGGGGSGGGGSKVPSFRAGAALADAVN

LoodLysrHU-A = LoodLysrHU-A (Escherichia coli K-12, UniProt P0ACF0 1-51+=SGGGGSGGGGS+75-90, K83A;K86A;internal_change); assay: as above; conditions: protein: recombinant; chain copies: 2; label: none (EtBr stain); four-way junction of 4 strands, equimolar, one copy each; strands as printed are not perfectly complementary
HU-A K83A = HU-A K83A (Escherichia coli K-12, UniProt P0ACF0 1-90, K83A); assay: as above; conditions: protein: recombinant; chain copies: 2; label: none (EtBr stain); four-way junction of 4 strands, equimolar, one copy each; strands as printed are not perfectly complementary
LoodHU-A K83A = LoodHU-A K83A (Escherichia coli K-12, UniProt P0ACF0 1-51+=SGGGGSGGGGS+75-90, K83A;internal_change); assay: as above; conditions: protein: recombinant; chain copies: 2; label: none (EtBr stain); four-way junction of 4 strands, equimolar, one copy each; strands as printed are not perfectly complementary
HU-A K86A = HU-A K86A (Escherichia coli K-12, UniProt P0ACF0 1-90, K86A); assay: as above; conditions: protein: recombinant; chain copies: 2; label: none (EtBr stain); four-way junction of 4 strands, equimolar, one copy each; strands as printed are not perfectly complementary
LoodHU-B K83A = target: T8, LoodHU-B K83A (Escherichia coli K-12, UniProt P0ACF4 1-51+=SGGGGSGGGGS+75-90, K83A;internal_change); assay: as above; conditions: protein: recombinant; chain copies: 2; label: none (EtBr stain); four-way junction of 4 strands, equimolar, one copy each; strands as printed are not perfectly complementary
T8 sequence: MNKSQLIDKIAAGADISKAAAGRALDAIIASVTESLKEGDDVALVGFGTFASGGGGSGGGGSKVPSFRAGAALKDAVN

HU-B K86A = target: T9, HU-B K86A (Escherichia coli K-12, UniProt P0ACF4 1-90, K86A); assay: as above; conditions: protein: recombinant; chain copies: 2; label: none (EtBr stain); four-way junction of 4 strands, equimolar, one copy each; strands as printed are not perfectly complementary
T9 sequence: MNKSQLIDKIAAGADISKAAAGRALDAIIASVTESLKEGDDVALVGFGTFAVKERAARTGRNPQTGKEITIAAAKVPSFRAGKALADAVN

LysrHU-B = target: T10, LysrHU-B (Escherichia coli K-12, UniProt P0ACF4 1-90, K83A;K86A); assay: as above; conditions: protein: recombinant; chain copies: 2; label: none (EtBr stain); four-way junction of 4 strands, equimolar, one copy each; strands as printed are not perfectly complementary
T10 sequence: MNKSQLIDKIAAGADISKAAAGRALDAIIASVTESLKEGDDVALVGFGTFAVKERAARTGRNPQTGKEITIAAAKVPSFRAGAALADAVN

LoodHU-A K86A = LoodHU-A K86A (Escherichia coli K-12, UniProt P0ACF0 1-51+=SGGGGSGGGGS+75-90, K86A;internal_change); assay: as above; conditions: protein: recombinant; chain copies: 2; label: none (EtBr stain); four-way junction of 4 strands, equimolar, one copy each; strands as printed are not perfectly complementary
[1] = target: the molecule itself; assay: cross-linking; glutaraldehyde added to HU-B or its variant alone (no f-LPS); 15% SDS-PAGE, Coomassie Blue G-250 staining
[2] = target: the molecule itself; assay: SEC; Superdex-75 10/300GL on an AKTA Purifier-10; elution at ~12 ml, corresponding to ~25 kDa

B1: 4WJ DNA (structured_DNA)
DNA 1: CCCTATAACCCCTGCATTGAATTCCTGTCTGATAA
DNA 2: GTAGTCGTGATAGGTGCAGGGGTTATAGGG
DNA 3: AACAGTAGCTCTTAATTCGAGCTCGCGCCCTATCACGACTA
DNA 4: TTTATCAGACTGGAATTCAAGCGCGAGCTCGAATAAGAGCTACTGT
LysrHU-A
  binding result: binds
LoodHU-B
  binding result: binds
LoodHU-B K86A
  binding result: no binding
F47W HU-B
  binding result: binds
F79W HU-B
  binding result: binds
HU-B K83A
  binding result: binds
HU-B
  binding result: binds
LoodLysrHU-B
  binding result: no binding
LoodLysrHU-A
  binding result: no binding
HU-A K83A
  binding result: binds
LoodHU-A K83A
  binding result: no binding
HU-A K86A
  binding result: binds
LoodHU-B K83A
  binding result: no binding
HU-B K86A
  binding result: binds
LysrHU-B
  binding result: binds
LoodHU-A K86A
  binding result: no binding

B2: HU-B WT (6xHis-tagged) (natural protein, E. coli K-12)
chain: MNKSQLIDKIAAGADISKAAAGRALDAIIASVTESLKEGDDVALVGFGTFAVKERAARTGRNPQTGKEITIAAAKVPSFRAGKALKDAVN
notes: HU-B, isoform of the nucleoid-associated histone-like protein HU of E. coli; gene PCR-amplified from E. coli K-12 genomic DNA; ~90 amino acids, ~9.2-kDa polypeptide; Cloned between BamHI and HindIII of pQE-30; also called WT HU; source: E. coli XL-1 Blue (pQE-30), purified (Ni-NTA, 2 M NaCl wash)
[1]
  stoichiometry N: 2 and 4 and 3 and 6

B3: LysrHU-B (lysine-replaced HU-B, K83A and K86A) (natural protein, E. coli K-12)
chain: MNKSQLIDKIAAGADISKAAAGRALDAIIASVTESLKEGDDVALVGFGTFAVKERAARTGRNPQTGKEITIAAAKVPSFRAGAALADAVN
notes: source: E. coli XL-1 Blue (pQE-30), purified (Ni-NTA, 2 M NaCl wash)
[2]
  stoichiometry N: 2
[1]
  stoichiometry N: 4

B4: LoodLysrHU-B (loop-deleted and lysine-replaced HU-B) (natural protein, E. coli K-12)
chain: MNKSQLIDKIAAGADISKAAAGRALDAIIASVTESLKEGDDVALVGFGTFASGGGGSGGGGSKVPSFRAGAALADAVN
notes: HU-B of E. coli K-12, the stretch before the deleted loop (residues 52 to 74 deleted); 11-residue glycine/serine-rich linker that replaces residues 52 to 74; HU-B of E. coli K-12, the stretch after the deleted loop, with K83A and K86A (numbers count on unchanged HU-B); Combines the LoodHU-B and LysrHU-B changes; source: E. coli XL-1 Blue (pQE-30), purified (Ni-NTA, 2 M NaCl wash)
[2]
  stoichiometry N: 2
[1]
  stoichiometry N: 4

B5: LoodHU-B (loop-deleted HU-B) (natural protein, E. coli K-12)
chain: MNKSQLIDKIAAGADISKAAAGRALDAIIASVTESLKEGDDVALVGFGTFASGGGGSGGGGSKVPSFRAGKALKDAVN
notes: HU-B of E. coli K-12, the stretch before the deleted loop (residues 52 to 74 deleted); 11-residue glycine/serine-rich linker that replaces residues 52 to 74; HU-B of E. coli K-12, the stretch after the deleted loop (residues 52 to 74 deleted); The results call the loop 22 residues long, but residues 52 to 74 are 23 residues; source: E. coli XL-1 Blue (pQE-30), purified (Ni-NTA, 2 M NaCl wash)
[2]
  stoichiometry N: 2
[1]
  stoichiometry N: 4

Source: publication PMC8063757, “The DNA-binding protein HU is a molecular glue that attaches bacteria to extracellular DNA in biofilms” (The Journal of Biological Chemistry, 2020)
